Experimental data from patent US20030199016.

Assays:
[1] = tested on: ACTIVASE recombinant human tissue-type plasminogen activator (r-tPA)
[2] = tested on: TNK-tPA
[3] = tested on: CHO plasminogen activator
CHO plasminogen activator, sequence (chain, as listed by the source): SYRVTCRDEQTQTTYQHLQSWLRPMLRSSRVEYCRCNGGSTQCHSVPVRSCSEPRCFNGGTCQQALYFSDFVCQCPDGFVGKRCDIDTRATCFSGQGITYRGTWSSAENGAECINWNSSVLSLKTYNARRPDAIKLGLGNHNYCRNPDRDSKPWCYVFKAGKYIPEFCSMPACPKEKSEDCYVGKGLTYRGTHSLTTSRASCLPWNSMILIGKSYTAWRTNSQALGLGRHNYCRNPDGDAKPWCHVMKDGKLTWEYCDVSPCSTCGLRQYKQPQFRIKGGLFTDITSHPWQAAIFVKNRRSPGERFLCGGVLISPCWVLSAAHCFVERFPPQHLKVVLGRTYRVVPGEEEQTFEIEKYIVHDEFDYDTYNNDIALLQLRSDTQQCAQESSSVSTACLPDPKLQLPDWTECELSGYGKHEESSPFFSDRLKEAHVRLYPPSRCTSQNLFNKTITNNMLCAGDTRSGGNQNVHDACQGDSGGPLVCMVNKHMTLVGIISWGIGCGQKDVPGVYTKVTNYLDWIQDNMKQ

ACTIVASE recombinant human tissue-type plasminogen activator (r-tPA), sequence (chain, as listed by the source): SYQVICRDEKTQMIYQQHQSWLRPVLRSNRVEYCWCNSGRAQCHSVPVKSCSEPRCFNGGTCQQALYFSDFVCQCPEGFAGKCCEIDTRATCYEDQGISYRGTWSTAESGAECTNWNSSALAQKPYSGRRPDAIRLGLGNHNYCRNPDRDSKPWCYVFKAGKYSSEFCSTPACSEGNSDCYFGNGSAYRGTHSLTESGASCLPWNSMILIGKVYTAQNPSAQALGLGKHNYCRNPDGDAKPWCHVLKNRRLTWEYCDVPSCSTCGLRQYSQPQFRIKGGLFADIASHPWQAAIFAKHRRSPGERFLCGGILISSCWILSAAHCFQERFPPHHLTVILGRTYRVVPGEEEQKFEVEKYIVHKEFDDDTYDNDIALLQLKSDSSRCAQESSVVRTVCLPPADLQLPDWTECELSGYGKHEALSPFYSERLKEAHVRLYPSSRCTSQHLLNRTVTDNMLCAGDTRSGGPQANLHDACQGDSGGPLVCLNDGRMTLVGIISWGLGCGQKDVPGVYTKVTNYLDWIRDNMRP
TNK-tPA, sequence (chain, as listed by the source): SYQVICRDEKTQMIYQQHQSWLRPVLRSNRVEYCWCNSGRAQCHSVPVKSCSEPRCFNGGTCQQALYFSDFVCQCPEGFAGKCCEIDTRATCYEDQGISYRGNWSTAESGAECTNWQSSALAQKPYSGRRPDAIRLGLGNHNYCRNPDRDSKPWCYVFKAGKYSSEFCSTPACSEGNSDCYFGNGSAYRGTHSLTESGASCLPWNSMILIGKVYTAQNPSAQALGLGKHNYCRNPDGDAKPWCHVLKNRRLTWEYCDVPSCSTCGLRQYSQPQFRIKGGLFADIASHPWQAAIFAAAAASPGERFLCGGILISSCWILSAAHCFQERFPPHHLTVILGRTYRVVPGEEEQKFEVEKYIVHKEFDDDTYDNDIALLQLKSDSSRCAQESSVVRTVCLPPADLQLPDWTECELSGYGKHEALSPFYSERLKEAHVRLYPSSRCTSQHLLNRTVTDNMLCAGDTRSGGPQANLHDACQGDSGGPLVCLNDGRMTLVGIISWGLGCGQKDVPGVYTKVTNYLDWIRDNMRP

Plasminogen
conversion of single-chain form to two-chain form (reversed-phase HPLC after plasmin and DTT/urea treatment) [1]: incubation with plasminogen converts the single-chain form of the three plasminogen activators to the two-chain form | conversion of single-chain form to two-chain form (reversed-phase HPLC after plasmin and DTT/urea treatment) [2]: incubation with plasminogen converts the single-chain form of the three plasminogen activators to the two-chain form | conversion of single-chain form to two-chain form (reversed-phase HPLC after plasmin and DTT/urea treatment) [3]: incubation with plasminogen converts the single-chain form of the three plasminogen activators to the two-chain form
